Test results as given in the DeepSol protein solubility set.

Test: soluble on expression in E. coli; label from the status in PepcDB or PDB records
For “MSLPHALIVEDDPNSLSGLSAILAADGFSVDTATTIAEARAALTRFIPDVVLVDLNLPDGSGLDLLQHLPAHPPGGALPVIVMTGNATVESAIEGLRHGIWDYLLKPVNIPRLRSLLARIPRPYELTEEVQTLRASLRQLGRFGSMLGRSGAIQHVYDTIEHIAPTEAAVLISGETGTGKQIAARTMHDMSRRRKGPFITFDCRSANSAGVQRSLDSLLFGHERGAFNGAEQREPGLFEQASGGTLFIEEIAELPRAQQEALLRALDSQTFMRVGGTNQVVTDFRLIASTRKAPRAAVADGSLHEDLALRLEAAAVTLPPLRERGEDPALIAQAVVDELNHEGLTRGSAESAKQVAPNFLRECLAYEWPGNVRELQDRVRRAYHASGDVLESLRADEAGSEGHHHHHH”, the “soluble on expression in E. coli” value was “soluble”. For “MPLSAQQLAAQKNLSYVLAEKLAQRILKGDYAPGTILPGEIELGEQYGVSRTAVREAVKTLTAKGMVLPRPRIGTRVMPQGNWNFLDQELLTWWMTEENFHQVVEHFLVMRISLEPQACLLAATLGTPEQKARLNALMEEMVALKKHFKRERWIEVDMAWHEHIYEMSANPFLISFATLFHSVYHTYFTSITYNEVVKLDLHQAIVDAIADGDGERAFQACQALLIAPNERPDN”, the “soluble on expression in E. coli” value was “not soluble”. In the case of “MMEDGNYIINPWVYTDRMGMYRILLEETAMYFAKYGPENEQNLLWGLPLQFGWQYQSGRLADPTGMTDCGNELNESLCVSVDSWWADINYYLSVIPFLAAVDSGITGISPNQITILPPPKDQMRFCYNVSDCQSAVPGTMNRWRDFFQYMQLNSSDFDGLLNYLWEAHASSLDYPTSAFGDRYNFYSEKEANFEENWAIAVNYLAAARLPTTQNRTYSFQRGLPPRVLVDTDIAPFIPDFTPLQNEVLVSLKLLGDTDRNSGSLSLTLWENLMSTKLARTLFLKAFEEFLVTSS”, the “soluble on expression in E. coli” value is reported as “soluble”. With “MDAEQLLKAITPEVYDRLVYAVETGRWPEGTTLSREQRDSCMQAVMLYQSKHNTEAQHMTVAAGGEISFKSKQELKKQFNTDESDIVRVNPNLD” the “soluble on expression in E. coli” value was “not soluble”. In the case of “MGSDKIHHHHHHMKETSWDDYKIAYQVALDGSLSRAGVSLRINHATVLRRINQLEQALEVKLFIRHQRGYKLTDAGCVLMDEMPEMLAKFSSLENKLQNVEGDISGELRITTVSSFSPVITPALKAFRAKYPKIRLKLISTDDIVPLDSGAAHVSLRAGPSPVGVDLVVKNLIKLETAYHATQDYIDEFGQPKTINEFNDHQWVLPTPEKYRIPFVNYIVDKIDKNRIVFQSNNFSDIHDAVIAGMGIGPLSDHQASLNPSMVKIDLDIPKNGESIWFVYHKDLKHSARIQSFYHFLKAALSDIEQEHLRISDSKTNKD”, the “soluble on expression in E. coli” value is reported as “not soluble”. For “GHMSESREARLIIFHAGSLSIPLSQVEEKFTKYAQEKLGVKVTFQDEASGSVKAVRKVTDLKKRADIVAVADYTLIPQLMIPNYTDFYVLFATNEIVIAFTNKSKYADEMLKNPDKWYEILSRPDVSFGFSDPNQDPCGYRSVMVMKLAELYYGRPIFKELVEKTTNIYSNGTRIYAPKEIIIKDKRVIMRPKETDLVGLVESGSLDYIFIYKSVAKQHHLSYITLPDDINLGDFNKADFYGRVSITLGSTGKTIKAKPIVYGITVLKNAPNRELAIEFLRFLLGNEGRKIFEDNYQEFLSPPVAFGNVPPEIRRLVEVK”, the “soluble on expression in E. coli” value was “soluble”. In the case of “MSLYGKRLVVFAPLYVSNYCVNNCTYCGYKHCNDELKRKKLNKEQLIEEVKVLESLGHKRIALEAGEDPVNAPLDYILDCIKSIYSIKFDNGSIRRINVNIAATSVEDYKRLKDAEIGTYILFQETYHKPTYERLHVSGPKHNYNYHTTAMHRAREAGIDDIGMGVLYGLYDYKYETLAMLMHAMDLEETTGVGPHTLSVPRIRPAENVSLENYPYLVDDEDFKKIVAILRLAVPYAGLILSTREEPGLRDEIIALGVSQVSTGSCTGVGGYSESYIDPEEKPQFEVGDHRSPVEMIESLMEAGYIPSYCTACYREGRTGERFMDIVKSGELYKICEANALITLKEFIDDYGTDRTREIGDKLIKKSIDEIDNESFRKSVEEKINKISNGTRDLRFEGHHHHHH”, the “soluble on expression in E. coli” value is reported as “not soluble”. In the case of “MEKQNIAVILARQNSKGLPLKNLRKMNGISLLGHTINAAISSKCFDRIIVSTDGGLIAEEAKNFGVEVVLRPAELASDTASSISGVIHALETIGSNSGTVTLLQPTSPLRTGAHIREAFSLFDEKIKGSVVSACPMEHHPLKTLLQINNGEYAPMRHLSDLEQPRQQLPQAFRPNGAIYINDTASLIANNCFFIAPTKLYIMSHQDSIDIDTELDLQQAENILNHKES”, the “soluble on expression in E. coli” value is reported as “soluble”. With “MGHHHHHHGGHMSLQDFKKLPTVLTAEELIDKIFRRAARVEGRNPKEKALNKLATISNVSRDYFGKIIGAHPSYENLPDFYREMVDVVVGIRQLKKSLVALKWADGMIQKVVSRAVREVKGGKNPSAVVKSAYGRVASIIEQIDDELRFLNDAKNRMREIPILQDLPTIVVAGYPNVGKSSLVARISTVKPEVASYPFTTKKINLGFAEFAGKRVQIIDTPGLLDRPLSKRNRIERRAVLALKHLADIILFVIDPTETCGYSLEKQLSLLEEIKGYFAKPTVEVYSKADMHDRRDRQAYSAVTGEGIDELIKEIEKMVKIHSQTSTVIAPSGQTSTQEQHSEGGS” the “soluble on expression in E. coli” value was “soluble”. With “MSLKIAEMDSNSAVMAAQNEVIRGEIKDRDGNVLAKSTKSGDLTQKREYPYGEIYSHPIGYASGIYGNAGLEGAYSKELTTYENVSLKAFLKSFNLKKDFKERNESDKKVGNSIVTTLDTDLQKAAYAALGANRGAVVALDPKTGAVLASVSKPGFNPNNMKETYEIANNPNGNPKDAILVDRALNGQYPPGSTFKVVTLTSALENLPGVTERTFNDTGSINVGTKDLPNENGNAYGNISLRKALSVSSNVIFGGILGEELGNKKLRETAEKYGFNKDLYLGNLKAYSGSFPDRKTVDKGLIAYDAIGQGEVLSSPIEMAMVAATVANNGVRMEPYIVSKVVDKDGDTVKEFSSTKKDTVMSKEQAQIINEYMQGVAKDRINDNWGYFKGMNVAAKTGTAQVPDGNSHAWLIAFAPADDPKIAVATIVENGGSGSKVAAPVTARVMQAYFNEGHHHHHH” the “soluble on expression in E. coli” value was “soluble”. In the case of “MGSDKIHHHHHHMATTLFIQRGDIAAWLADTAATHTVYAPLRDKTGVRFHRLCAQDAAAQTQALELDRQAQTPPKNVLLPACETLLEFSYAKQEDGSTSLDVQPVMPQGAVLLFGPRPCDARAFTVFDRVYDAGRGKDPYYTARRAATVVASVVCTRPEQSCFCTAVGGAPDDTEGSDILFTPVQDGFIVRPLTQAAEAVLRHPLFTEAAHREEEAADVCAAARAAVPCAPADFTAAPEPVAALFDDMEFWQSVTAKCLSCGACTYLCPTCYCFNITDESNGLEGRRLRTWDNCMSFQFTLEGSGHNPRPTKAHRYRNRIGHKFSYYPRIHDGALSCVGCGRCISSCPVTMDIRRIVHSAMQRAQCATPEQAHE”, the “soluble on expression in E. coli” value is reported as “not soluble”. For “GSGNRTRKRRMINASVWMPPMENEEKNRKNHQSITSSQHSLLEASYDGYIKRQRNELQHYSLYPNPQGYGNGNDFLGDFNHTNLQIPTEPEPESPIKLHTEAAGSYAITEPITRESVNIIDPRHNRTVLHWIASNSSAEKSEDLIVHEAKECIAAGADVNAMDCDENTPLMLAVLARRRRLVAYLMKAGADPTIYNKSERSALHQAAANRDFGMMVYMLNSTKLKGDIEELDRNGMTALMIVAHNEGRDQVASAKLLVEKGAKVDYDGAARKDSEKYKGRTALHYAAQVSNMPIVKYLVGEKGSNKDKQDEDGKTPIMLAAQEGRIEVVMYLIQQGASVEAVDATDHTARQLAQANNHHNIVDIFDRCRPERE”, the “soluble on expression in E. coli” value was “soluble”. With “MGSDKIHHHHHHMFKKLAADLTGFSDIGQVIHPDDFDKAAADDYVLHEDGEKIYFLIKSKTDEYCFTNLALVHLDGESAVSSKRVLYRYPYAHYPIRHVMFETAGTVDLDVEIKFEIGGKHYSIDVDKKQLEHVKDLYKALLAIAEKQYEGQKMLEFANSSLNHSVTILGGLRQGDMNVPQTFKDLSQESFDWLQGHYYKWNQKDFGSFYEKYINN” the “soluble on expression in E. coli” value was “not soluble”. With “MKIAIIGYSGSGKSTLANFLGQHYNCEVLHLDKIHFTSNWQERTVDEMTDDISTFMLQSDWIIEGNYSACLYEERMREADCIVYFNFNRVNCLYRAFRRYLTYRGKTRPSMAEG” the “soluble on expression in E. coli” value was “not soluble”. In the case of “MKTSPRSNRLHIALFGKRNSGKSSLINALTNQNAALVSDIAGTTTDPVYQPMEIHGIGPCVFIDTAGFDDEGELGSLRIERTLQAADKADIALMVCCDTELSEEQRWIELLKERNIPYLLVLNKADLLEKPDEVADKLEQQTGQHPLIVSAKEKTGIDSIRQSILHRLPELNEQPDIVGDLANEGDVVLLVMPQDIQAPKGRLILPQVQTLRELLDKKCITLSCTTDQLDNALKALSVPPSLIITDSQVFRTVYEKKPPQSRLTSFSVLFARYKGDIDYYTEGAYIIDQLTENSRVLIAEACTHAPLSEDIGRVKLPRMLRKRIGEKLHIDIVSGNDFPKDLNCYDLIIHCGACMFNRKHVLNRIVKAKAQGVPMTNYGIVIAYINGIPFH”, the “soluble on expression in E. coli” value is reported as “soluble”. For “STDDKDVLRDVWFGRIPTCFTLYQDEITEREAEPYYLLLPRVSYLTLVTDKVKKHFQKVMRQEDVSEIWFEYEGTPLKWHYPIGLLFDLLASSSALPWNITVHFKSFPEKDLLHCPCKDAVEAHFMSCVKEADALKHKSQVINEMQRKDHKQLWMGLQNDLTSFGPSTGNSWNTLQKKMDFVISLLEYIRPQLNGLSFRSCSVLWPQMDSCIPLEIS”, the “soluble on expression in E. coli” value was “soluble”. With “MSLQTQDIIRRSGTNSLTPPPQVRDHQEPVAKLIDVTTCIGCKACQVACSEWNDIRDEVGHNVGVYDNPADLTAKSWTVMRFSEVEDEESGKLEWLIRKDGCMHCADPGCLKACPSEGAIIQYANGIVDFQSEHCIGCGYCIAGCPFDVPRMNKDDNRVYKCTLCVDRVGVGQEPACVKTCPTGAIHFGTKESMKEVAAGRVAELKTRGFDNAGLYDPAGVGGTHVMYVLHHADKPQLYHGLPENPTISPTVTFWKGIWKPLAAVGFAATFAASIFHYVGVGPNRVEEEEEDDETTDPTPSETVAKAPEQTTSERSDEGETRK” the “soluble on expression in E. coli” value was “not soluble”. In the case of “NDSPFYVNPNMSSAEWVRNNPNDPRTPVIRDRIASVPQGTWFAHHNPGQITGQVDALMSAAQAAGKIPILVVSNAPGRDCGNHSSGGAPSHSAYRSWIDEFAAGLKNRPAYIIVEPDLISLMSSCMQHVQQEVLETMAYAGKALKAGSSQARIYFDAGHSAWHSPAQMASWLQQADISNSAHGIATNTSNYRWTADEVAYAKAVLSAIGNPSLRAVIDTSRNGNGPAGNEWCDPSGRAIGTPSTTNTGDPMIDAFLWIKLPGEADGCIAGAGQFVPQAAYEMAIAA”, the “soluble on expression in E. coli” value is reported as “soluble”. In the case of “MGSDKIHHHHHHLIPKIIHYCWFGNSELPDIVKDCISSWKKYCPEYEIKRWDESNYDVSKNAYTRAAYKNKKWAFLTDYVRLDVLYNEGGVYMDTDVKLIRSLDPLIDKGPFMSFEKRGRVNTGVGFACEAGNPIVKENKDYYENNLFVDENGNFEPEICVKITTKILIKHGLNYTENVVQKVDGLIVYSSDYFSPKKLGTEKITLTSNTYGIHLFASSWYKGSKIYKKMKYHLIPLKEFIKYKILSKKLYE”, the “soluble on expression in E. coli” value is reported as “not soluble”. For “MGSDKIHHHHHHVLLEEFENTSAVIEPTDMAIRGGGEVCETMIFSFNGEIVDRVRQLPESREGGYLESINGRHPWYILERDGVRVAVMLAVIGAPMAVGHLEELKACGFENFIVLGSCGVLDKSLVADKIILPSSALRDEGTSYHYAPASDEISYDPALLLTMEKALDQAGIEHVRAKTWTTDAFYRETSAKVKRRLAAGAMVVDMEASAIMAWANFRQAKVYQFFYTADYVDYHKNEWDARREERTADSMTFFEVAMAIARKLESTSC”, the “soluble on expression in E. coli” value was “not soluble”.
